From patent publication US20220096594A1 (University of Texas, published 2022)
Bridge positions count the residues as written; N and C are the ends. Square brackets hold non-standard residues; d marks the D form. Primed or numbered codes have the meaning given here. Ends that are not written are not given here. * marks the point of attachment. DSG″ = disuccinimidyl glutarate, a bis-NHS cross-linker that leaves a glutaryl bridge between two amines; DSG(3) = disuccinimidyl glutarate, bis-NHS cross-linker leaving a glutaryl bridge between two amines; puromycin = COc1ccc(C[C@H](N*)C(=O)N[C@H]2[C@@H](O)[C@H](n3cnc4c(N(C)C)ncnc43)O[C@@H]2CO)cc1; DSG = disuccinimidyl glutarate; NMeA = CN[C@@H](C)C(=O)O; mRNA = not defined here

Experiments:
[1] = target: LC3 (as used in surface plasmon resonance) (human, UniProt Q9H492 1-120); experiment: surface plasmon resonance
[2] = target: T1, His6-LC3A, biotinylated and immobilized on streptavidin agarose (human, UniProt Q9H492 1-121, chemically biotinylated (sites not given)); experiment: radiolabeled peptide fusion incubated with immobilized LC3A
T1 construct: the species is not restated for this construct; The tag is placed at the N-terminus only because of the name His6-LC3A; also called immobilized LC3A; immobilized LC3; not shown: His6 tag

Binder | Kd [1] [µM] | % of radiolabeled peptide-fusions bound to immobilized LC3 [2] [%] | fold improvement of the apparent dissociation constant relative to SUPR4B [1] [fold]
MFPHRVTA[NMeA]K (bridge N-10 via DSG″, It is kept apart from the mRNA-peptide fusion m1; also called Clone 4B) [SUPR 4B (synthesized cyclic peptide)] | 291 | – | –
MYARSLRD[NMeA]K (bridge N-10; not fully specified (C-terminus, bridges); also: radiolabeled) [Clone 25A radiolabeled mRNA-peptide fusion] | – | 6 | –
MNARSLRD[NMeA]K (bridge N-10; not fully specified (C-terminus, bridges); also: radiolabeled) [Clone 25F radiolabeled mRNA-peptide fusion] | – | 5 | –
MFSHRVTL[NMeA]K (bridge N-10; not fully specified (C-terminus, bridges); also: radiolabeled) [Clone 25C radiolabeled mRNA-peptide fusion] | – | 13 | –
MLSDIPVNDK-{puromycin-mRNA} (bridge N-10 via DSG(3); reading uncertain; also: radiolabeled) [Clone 4E radiolabeled mRNA-peptide fusion] | – | 7 | –
MFPHRVTA[NMeA]K (bridge N-10; not fully specified (C-terminus, bridges); also: radiolabeled, Tested as an individual in vitro translated peptide fusion from the SUPR mRNA display selection; also called Peptide 4B) [Clone 4B radiolabeled mRNA-peptide fusion] | – | 86 | –
MWPHRVTA[NMeA]K (bridge N-10 via DSG, Phenylalanine-to-tryptophan variant of SUPR 4B at position 2) [SUPR 4B1W] | 30 | – | ~10
